As a reminder, the stoichiometry N is a count of units in the complex or per binding partner. The Kd is the concentration at which binding is half-saturated. High values mean lower affinity, low ones higher affinity.

The text below walks through data of paper PMC2831303.

The target in data set [1] is NorRΔGAF (GAF domain deleted form of E. coli NorR) (E. coli).
Data set [2] shares this target. The experiment in a line: SEC. Background: Size exclusion chromatography separates by hydrodynamic size, large species first.
For data set [3] the target is unchanged. Put plainly: negative-stain electron microscopy.
Data set [4] has as its target T1, NorRΔGAF (Escherichia coli, UniProt P37013 178-504).
T1 sequence: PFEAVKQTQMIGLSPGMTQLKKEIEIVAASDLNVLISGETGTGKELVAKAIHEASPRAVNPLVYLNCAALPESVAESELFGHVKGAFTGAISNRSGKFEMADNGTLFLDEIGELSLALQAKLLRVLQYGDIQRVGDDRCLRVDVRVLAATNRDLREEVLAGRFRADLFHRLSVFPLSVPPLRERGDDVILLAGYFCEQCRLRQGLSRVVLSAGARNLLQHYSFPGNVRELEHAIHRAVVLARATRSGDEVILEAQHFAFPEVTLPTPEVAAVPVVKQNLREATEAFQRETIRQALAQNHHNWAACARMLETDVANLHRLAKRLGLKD
The experiment in a line: gel filtration.

In data set [5] the target is T1, NorRΔGAF. The experiment in a line: EMSA. In general terms: In EMSA bound probe runs differently from free probe, usually more slowly.

Turning to “NorRΔGAF (GAF domain deleted form of E. coli NorR) (domain or fragment)”, in data set [1], the ATPase activity against NorRΔGAF concentration with 21 bp NorR1 DNA (1:1): Keff amounted to 8.4 µM. The stoichiometry N in data set [2] worked out at 2; in data set [3], 6.

B1: NorR1 21 bp (dsDNA)
DNA 1: GATAGTCATTTTGACTACTCA
DNA 2: TGAGTAGTCAAAATGACTATC
On to B1, for which the binding result in data set [4] is “binds”.

B2: NorR123 66 bp (dsDNA)
DNA 1: TCACTGTCAATTTGACTATAGATATTGTCATATCGACCATTTGATTGATAGTCATTTTGACTACTC
DNA 2: GAGTAGTCAAAATGACTATCAATCAAATGGTCGATATGACAATATCTATAGTCAAATTGACAGTGA
In data set [5], B2 came in with a Kd of 174 nM.
